For assay [1], the target named is monoclonal antibody 23L-2Ca. As to the kind of experiment: competitive EIA: unlabeled ligand varied against HRP-labeled [Cys^19-NH2] rat TGR23-2 ligand (1-19) for 23L-2Ca (FIG. 7).
The target in assay [2] is monoclonal antibody 23L-1Na. Description: competitive EIA: unlabeled ligand varied against HRP-labeled [Cys^19-NH2] rat TGR23-2 ligand (1-19) for 23L-1Na (FIG. 5).
Assay [3] has as its target monoclonal antibody 23L-1Ca. As to the kind of experiment: competitive EIA: unlabeled ligand varied against HRP-labeled [Cys^19-NH2] rat TGR23-2 ligand (1-19) for 23L-1Ca (FIG. 6).

Broadly, the IC50 is the midpoint of a concentration-inhibition curve. Lower therefore signals greater potency.

For the molecule SFRNGVGSGAKKTSFRRAKQ [mouse TGR23-2 ligand], the 50% inhibitory concentration (IC50) in assay [1] came out at 40 nM; in assay [2], 60 nM.
Take SFRNGVGTGMKKTSFQRAKS [human TGR23-2 ligand]: the IC50 in assay [2] worked out at 60 nM.
With SFRNGVGSGVKKTSFRRA [rat TGR23-2 ligand], the 50% inhibitory concentration (IC50) came to 20 nM in assay [1], 100 nM in assay [2] and 20 nM in assay [3].

The record behind these values is patent publication US20060177449A1.
